Measured values published in US20150344570A1 (published 2015).

T1: FcγRIIb, extracellular domain with C-terminal His tag (human, UniProt P31994 43-217)
T1 construct: extracellular domain; made in FreeStyle293 cells; analyte in the Biacore assay; also called 2b; FcgRIIb
T1 sequence (looked up): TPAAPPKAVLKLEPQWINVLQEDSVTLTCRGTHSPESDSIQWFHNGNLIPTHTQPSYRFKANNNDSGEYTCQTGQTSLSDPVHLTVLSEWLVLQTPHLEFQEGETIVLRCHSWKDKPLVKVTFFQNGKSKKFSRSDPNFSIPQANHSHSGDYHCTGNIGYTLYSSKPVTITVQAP

T2: FcγRIIa R (FcγRIIa allotype with Arg at position 131), extracellular domain with C-terminal His tag (human, UniProt P12318 34-217)
T2 construct: extracellular domain; made in FreeStyle293 cells; analyte in the Biacore assay; also called FcγRIIa type R; 2aR
T2 sequence (looked up): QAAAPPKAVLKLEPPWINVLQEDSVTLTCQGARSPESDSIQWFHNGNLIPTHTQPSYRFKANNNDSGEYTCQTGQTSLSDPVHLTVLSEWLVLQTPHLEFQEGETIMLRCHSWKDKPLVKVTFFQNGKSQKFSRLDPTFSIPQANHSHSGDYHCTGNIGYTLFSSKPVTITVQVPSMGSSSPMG

T3: FcγRIIb extracellular domain with C-terminal His tag (human, UniProt P31994 43-217)
T3 construct: extracellular domain; Expressed in FreeStyle293 cells; analyte in the SPR assay; also called FcgRIIb; 2b
T3 sequence (looked up): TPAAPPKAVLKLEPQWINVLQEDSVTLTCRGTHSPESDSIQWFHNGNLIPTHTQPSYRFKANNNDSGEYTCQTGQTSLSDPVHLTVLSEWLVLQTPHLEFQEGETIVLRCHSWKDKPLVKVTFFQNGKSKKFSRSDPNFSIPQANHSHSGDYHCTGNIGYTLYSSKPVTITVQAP


How the values were obtained:
[1] = target: T1, FcγRIIb, extracellular domain with …; assay: SPR (Biacore), antibody captured, FcγR analyte; vs GpH7-A5/GpH7-B3/GpL16-k0 = 100
[2] = target: T2, FcγRIIa R (FcγRIIa allotype with Arg at …); assay: as above
[3] = target: T2, FcγRIIa R (FcγRIIa allotype with Arg at …); assay: SPR (Biacore); He/Con_2aR divided by He/Con_2b, binding to FcγRIIa R against binding to FcγRIIb
Description: The heterodimerized antibodies He Abs in which one of the H chains was introduced with an alteration were assayed for their binding activities to each activating FcγR and inhibitory FcγR according to the method described in Example 4. […] The activating FcγRs in FIGS. 26, 27, 28, and 29 are FcγRIa, FcγRIIa (R), FcγRIIa (H), and FcγRIIIa, respectively.
Analysis of interaction between objective antibody and the FcγR was carried out using Biacore T100 (GE Healthcare). HBS-EP+ (GE Healthcare) was used as the running buffer, and the measurement temperature was set to 25° C. Chips produced by immobilizing the antigen peptide by the amine coupling method to a Series S Sencor Chip CM5 (GE Healthcare), or alternatively, chips produced by allowing preliminarily biotinylated antigen peptides to interact with and immobilize onto a Series S Sensor Chip SA (certified) (GE Healthcare) were used. Antibodies of interest were captured onto an antigen peptide-immobilized chip, and allowed to interact to each FcγR diluted with running buffer. To regenerate and repeatedly use the chip, the antibodies captured on the chip were washed off by reacting 10 mM glycine-HCl, pH 1.5.

[4] = target: T4, FcγRIa extracellular domain with C-terminal His tag (human, UniProt P12314 16-292); assay: SPR (Biacore), relative binding, HeCon Ab = 100
T4 construct: extracellular domain; Expressed in FreeStyle293 cells; analyte in the SPR assay; also called FcgRI; 1a
T4 sequence (P12314 16-292): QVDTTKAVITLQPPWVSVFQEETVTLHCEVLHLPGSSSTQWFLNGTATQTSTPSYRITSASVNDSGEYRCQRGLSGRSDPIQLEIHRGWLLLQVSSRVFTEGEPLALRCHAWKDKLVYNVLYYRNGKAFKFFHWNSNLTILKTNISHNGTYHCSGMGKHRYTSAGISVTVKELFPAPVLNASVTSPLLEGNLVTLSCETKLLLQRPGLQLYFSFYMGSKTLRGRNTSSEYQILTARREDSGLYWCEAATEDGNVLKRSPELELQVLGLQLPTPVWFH

[5] = target: T3, FcγRIIb extracellular domain with …; assay: SPR (Biacore), relative binding, HeCon Ab = 100
[6] = target: T4, FcγRIa extracellular domain with …; assay: SPR (Biacore); He/Con_1a divided by He/Con_2b (FcγRIa against FcγRIIb)

Row | Binder | He/Con_2b [1] | He/Con_2aR [2] | He_2aR/2b (IIaR/IIb) [3] [ratio] | He/Con_1a [4] | He/Con_2b [5] | He_1a/2b (Ia/IIb) [6] [ratio]
1 | GpH7-A5/GpH7-B3 variant G236_03V/GpL16-k0 (antibody, human IgG1, kappa, heterodimerized IgG1, mutation in one H chain only; also called He Ab) heavy 1: not shown heavy 2: not shown light: DIVMTQSPLSLPVTPGEPASISCQASESLVHSNRNTYLHWYLQKPGQSPQLLIYKVSNRFSGVPDRFSGSGSGTDFTLKISRVEAEDVGVYYCSQNTHVPPTFGQGTKVEIERTVAAPSVFIFPPSDEQLKSGTASVVCLLNNFYPREAKVQWKVDNALQSGNSQESVTEQDSKDSTYSLSSTLTLSKADYEKHKVYACEVTHQGLSSPVTKSFNRGEC | 35.3 relative (HeCon Ab = 100) | 91.6 relative (HeCon Ab = 100) | 2.6 |  |  | 
2 | GpH7-A5/GpH7-B3 variant L235_01G/GpL16-k0 (He Ab) (antibody, human IgG1, kappa, He Ab: mutation in one H chain only) heavy 1: not shown heavy 2: not shown light: DIVMTQSPLSLPVTPGEPASISCQASESLVHSNRNTYLHWYLQKPGQSPQLLIYKVSNRFSGVPDRFSGSGSGTDFTLKISRVEAEDVGVYYCSQNTHVPPTFGQGTKVEIERTVAAPSVFIFPPSDEQLKSGTASVVCLLNNFYPREAKVQWKVDNALQSGNSQESVTEQDSKDSTYSLSSTLTLSKADYEKHKVYACEVTHQGLSSPVTKSFNRGEC |  |  |  | 87.2 % of HeCon Ab (=100) | 35.4 % of HeCon Ab (=100) | 2.46
3 | GpH7-A5/GpH7-B3 variant L235_02A/GpL16-k0 (He Ab) (antibody, human IgG1, kappa, He Ab: mutation in one H chain only) heavy 1: not shown heavy 2: not shown light: DIVMTQSPLSLPVTPGEPASISCQASESLVHSNRNTYLHWYLQKPGQSPQLLIYKVSNRFSGVPDRFSGSGSGTDFTLKISRVEAEDVGVYYCSQNTHVPPTFGQGTKVEIERTVAAPSVFIFPPSDEQLKSGTASVVCLLNNFYPREAKVQWKVDNALQSGNSQESVTEQDSKDSTYSLSSTLTLSKADYEKHKVYACEVTHQGLSSPVTKSFNRGEC |  |  |  | 92.2 % of HeCon Ab (=100) | 63 % of HeCon Ab (=100) | 1.46
4 | GpH7-A5/GpH7-B3 variant L235_05P/GpL16-k0 (He Ab) (antibody, human IgG1, kappa, He Ab: mutation in one H chain only) heavy 1: not shown heavy 2: not shown light: DIVMTQSPLSLPVTPGEPASISCQASESLVHSNRNTYLHWYLQKPGQSPQLLIYKVSNRFSGVPDRFSGSGSGTDFTLKISRVEAEDVGVYYCSQNTHVPPTFGQGTKVEIERTVAAPSVFIFPPSDEQLKSGTASVVCLLNNFYPREAKVQWKVDNALQSGNSQESVTEQDSKDSTYSLSSTLTLSKADYEKHKVYACEVTHQGLSSPVTKSFNRGEC |  |  |  | 94.7 % of HeCon Ab (=100) | 54.7 % of HeCon Ab (=100) | 1.73
5 | GpH7-A5/GpH7-B3 variant G236_04F/GpL16-k0 (antibody, human IgG1, kappa, heterodimerized IgG1, mutation in one H chain only; also called He Ab) heavy 1: not shown heavy 2: not shown light: DIVMTQSPLSLPVTPGEPASISCQASESLVHSNRNTYLHWYLQKPGQSPQLLIYKVSNRFSGVPDRFSGSGSGTDFTLKISRVEAEDVGVYYCSQNTHVPPTFGQGTKVEIERTVAAPSVFIFPPSDEQLKSGTASVVCLLNNFYPREAKVQWKVDNALQSGNSQESVTEQDSKDSTYSLSSTLTLSKADYEKHKVYACEVTHQGLSSPVTKSFNRGEC | 39.3 relative (HeCon Ab = 100) | 53.1 relative (HeCon Ab = 100) | 1.35 |  |  | 

Continued, values first:

Row | He/Con_2b [1] | He/Con_2aR [2] | He_2aR/2b (IIaR/IIb) [3] [ratio] | He/Con_1a [4] | He/Con_2b [5] | He_1a/2b (Ia/IIb) [6] [ratio] | Binder
6 |  | 16.2 relative (HeCon Ab = 100) | 1.69 |  |  |  | GpH7-A5/GpH7-B3 variant L235_12R/GpL16-k0 (antibody, human IgG1, kappa, heterodimerized IgG1, mutation in one H chain only; also called He Ab) heavy 1: not shown heavy 2: not shown light: DIVMTQSPLSLPVTPGEPASISCQASESLVHSNRNTYLHWYLQKPGQSPQLLIYKVSNRFSGVPDRFSGSGSGTDFTLKISRVEAEDVGVYYCSQNTHVPPTFGQGTKVEIERTVAAPSVFIFPPSDEQLKSGTASVVCLLNNFYPREAKVQWKVDNALQSGNSQESVTEQDSKDSTYSLSSTLTLSKADYEKHKVYACEVTHQGLSSPVTKSFNRGEC
7 |  |  |  | 79.9 % of HeCon Ab (=100) | 6.3 % of HeCon Ab (=100) | 12.7 | GpH7-A5/GpH7-B3 variant L235_11K/GpL16-k0 (He Ab) (antibody, human IgG1, kappa, He Ab: mutation in one H chain only) heavy 1: not shown heavy 2: not shown light: DIVMTQSPLSLPVTPGEPASISCQASESLVHSNRNTYLHWYLQKPGQSPQLLIYKVSNRFSGVPDRFSGSGSGTDFTLKISRVEAEDVGVYYCSQNTHVPPTFGQGTKVEIERTVAAPSVFIFPPSDEQLKSGTASVVCLLNNFYPREAKVQWKVDNALQSGNSQESVTEQDSKDSTYSLSSTLTLSKADYEKHKVYACEVTHQGLSSPVTKSFNRGEC
8 |  |  |  | 92.2 % of HeCon Ab (=100) | 54.9 % of HeCon Ab (=100) | 1.68 | GpH7-A5/GpH7-B3 variant L235_18N/GpL16-k0 (He Ab) (antibody, human IgG1, kappa, He Ab: mutation in one H chain only) heavy 1: not shown heavy 2: not shown light: DIVMTQSPLSLPVTPGEPASISCQASESLVHSNRNTYLHWYLQKPGQSPQLLIYKVSNRFSGVPDRFSGSGSGTDFTLKISRVEAEDVGVYYCSQNTHVPPTFGQGTKVEIERTVAAPSVFIFPPSDEQLKSGTASVVCLLNNFYPREAKVQWKVDNALQSGNSQESVTEQDSKDSTYSLSSTLTLSKADYEKHKVYACEVTHQGLSSPVTKSFNRGEC
